According to the supplement of paper PMC12783771:
± gives the standard deviation of the averaged measurements.

B1: library; numbered along this chain (parent)
chain: MNIQIGELAKRTACPVVTIRFYEQEGLLPPPGRSRGNFRLYGEEHVERLQFIRHCRSLDMPLSDVRTLLSYRKRPDQDCGEVNMLLDEHIRQVESRIGALLELKHHLVELREACSGARPAQSCGILQGLSDCVCDTRGTTAHPSD

Legend:
[1] = variants of: B1; assay: sfGFP reporter fluorescence (15 h) (µM FITC); higher = higher leak; conditions: library round: Round 0; ligand: none
How it was run: (§1)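 With 1 µM lead chloride, 30 µM zinc acetate or no metal present, 1 μL Echo-assembled reactions were incubated 15 hr at 30 °C. They contained BL21 Star (DE3) PANOx-SP extract, 30 μg/mL GamS, the pPbrR-sfGFP reporter plasmid and PCR-made linear PbrR templates Echo-normalized to 5 nM. Endpoint sfGFP fluorescence was read on a Synergy Neo2 at 485/528 nm against FITC standards in 50 mM sodium borate pH 8.5. Results are expressed as µM FITC.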

[2] = variants of: B1; assay: sfGFP reporter fluorescence (15 h) (µM FITC); higher = stronger transcriptional activation; conditions: library round: Round 0
How it was run: as §1

| Variant | sfGFP reporter fluorescence [1] | sfGFP reporter fluorescence ([2]; ligand: 1 µM Pb) | sfGFP reporter fluorescence ([2]; ligand: 30 µM Zn) |
| --- | --- | --- | --- |
| MNIQIGELAKRTACPVVTIRFYEQEGLLPPPGRSRGNFRLYGEEHVERLQFIRHCRSLDMPLSDVRTLLSYRKRPDQDCGEVNMLLDEHIRQVESRIGALLELKHHLVELREACSGARPAQSCGALQGLSDCVCDTRGTTAHPSD | 0.0572 ± 0.0042 | 0.0553 ± 0.0021 | 0.0585 ± 0.0023 |
| MNIQIGELAKRTACPVVTIRFYEQEGLLPPPGRSRGNFRLYGEEHVERLQFIRHCRSLDMPLSDVRTLLSYRKRPDQDCGEVNMLLDEHIRQVESRIGALLELKHHLVEEREACSGARPAQSCGILQGLSDCVCDTRGTTAHPSD | 0.059 ± 0.001 | 0.0614 ± 0.0013 | 0.0579 ± 0.001 |
| MNIQIQELAKRTACPVVTIRFYEQEGLLPPPGRSRGNFRLYGEEHVERLQFIRHCRSLDMPLSDVRTLLSYRKRPDQDCGEVNMLLDEHIRQVESRIGALLELKHHLVELREACSGARPAQSCGILQGLSDCVCDTRGTTAHPSD | 0.0592 ± 0.0023 | 0.05754 ± 0.00052 | 0.0746 ± 0.0039 |
| MNIQIGELAKRTACPVVTIRFYEQEGLLPPPGRSRGNFRLYGEEHVERLQFIRHCRSLDMPLSDVRTRLSYRKRPDQDCGEVNMLLDEHIRQVESRIGALLELKHHLVELREACSGARPAQSCGILQGLSDCVCDTRGTTAHPSD | 0.06175 ± 0.00026 | 0.0579 ± 0.001 | 0.0596 ± 0.0029 |
| MNIQIGELAKRTACPVVTIRFYEQEGLLPPPGRSRGNFRLYGEEHVERLQFIRHCRSLDMPLSDVRTLLSYRKRPDQDCGEVNMLLDEHIRQVESRTGALLELKHHLVELREACSGARPAQSCGILQGLSDCVCDTRGTTAHPSD | 0.0579 ± 0.0042 | 0.0662 ± 0.0034 | 0.579 ± 0.0096 |
| MNIQIGELAKRTACPVVTIRFYEQEGLLPPPGRSRGNFRLRGEEHVERLQFIRHCRSLDMPLSDVRTLLSYRKRPDQDCGEVNMLLDEHIRQVESRIGALLELKHHLVELREACSGARPAQSCGILQGLSDCVCDTRGTTAHPSD | 0.0618 ± 0.0013 | 0.0623 ± 0.001 | 0.0643 ± 0.0013 |
| MNIQIGELAKRTACPVVTIRFYEQEGLLPPPGTSRGNFRLYGEEHVERLQFIRHCRSLDMPLSDVRTLLSYRKRPDQDCGEVNMLLDEHIRQVESRIGALLELKHHLVELREACSGARPAQSCGILQGLSDCVCDTRGTTAHPSD | 0.0634 | 0.06267 ± 0.00052 | 0.06285 ± 0.00026 |
| MNIQIGELAKRTACPVVTIRFYEQEGLLPPPGRSRGNFELYGEEHVERLQFIRHCRSLDMPLSDVRTLLSYRKRPDQDCGEVNMLLDEHIRQVESRIGALLELKHHLVELREACSGARPAQSCGILQGLSDCVCDTRGTTAHPSD | 0.0614 ± 0.0013 | 0.0634 | 0.066 ± 0.0015 |
| MNIQIGELAKRTACPVVTIRFYEQEGLLPPPGRSRGNFRLYGEEHVERLQFIRHCRSLDMPLSDVRTLLSYRKRPDQDCGEVNMLLDEHIRQVESRIGALLELKHHLVELREACSGARPAQSCGILQMLSDCVCDTRGTTAHPSD | 0.105 ± 0.0062 | 0.311 ± 0.025 | 3.04 ± 0.38 |
| MNIQIGELAKRTACPVVTIRFYEQEGLLPPPGRSRGNFRLYGEEHVERLQFIRHCRSLDMPLSDVRTLLSYRKRPDQDCGEVNMLLDEHIRQVESRIGALLELKHHLVILREACSGARPAQSCGILQGLSDCVCDTRGTTAHPSD | 0.05919 ± 0.00026 | 0.108 ± 0.0018 | 1.25 ± 0.29 |
| MNIQIGELAKRTACPVVTIRFYEQEGLLPPPGRSRGNFRLYGVEHVERLQFIRHCRSLDMPLSDVRTLLSYRKRPDQDCGEVNMLLDEHIRQVESRIGALLELKHHLVELREACSGARPAQSCGILQGLSDCVCDTRGTTAHPSD | 0.0605 ± 0.0015 | 0.0883 ± 0.014 | 1.17 ± 0.089 |
| MNIQAGELAKRTACPVVTIRFYEQEGLLPPPGRSRGNFRLYGEEHVERLQFIRHCRSLDMPLSDVRTLLSYRKRPDQDCGEVNMLLDEHIRQVESRIGALLELKHHLVELREACSGARPAQSCGILQGLSDCVCDTRGTTAHPSD | 0.0515 ± 0.0039 | 0.05186 ± 0.00026 | 0.0817 ± 0.0036 |
| MNIQIGELAKRTACPVVTIRFYEQEGLLPPPGRSRGNFRLYGEEHVERLQFIRHCRSLDMRLSDVRTLLSYRKRPDQDCGEVNMLLDEHIRQVESRIGALLELKHHLVELREACSGARPAQSCGILQGLSDCVCDTRGTTAHPSD | 0.0715 ± 0.0031 | 0.1231 ± 0.00052 | 1.42 ± 0.021 |
| MNIQIGELAKRTACPVVTIRFYEQEGLLPPPGRSRGNFRLYGEEHVERLQFIRHCRSLDMPLSDVRTLLSYRKRPDQDCGEVNMLLDEHIRQVESRIGALLELKHHEVELREACSGARPAQSCGILQGLSDCVCDTRGTTAHPSD | 0.05882 ± 0.00026 | 0.0746 ± 0.0096 | 0.288 ± 0.054 |
